Data reported in publication doi:10.1101/2020.04.23.057265 (bioRxiv, 2020).

Target: SARS-CoV nsp7L8 fusion protein (SARS-CoV, UniProt P0C6X7)
Assay: SPR

B1: SARS-CoV nsp12 polymerase subunit (enzyme)
chain: SADASTFLNRVCGVSAARLTPCGTGTSTDVVYRAFDIYNEKVAGFAKFLKTNCCRFQEKDEEGNLLDSYFVVKRHTMSNYQHEETIYNLVKDCPAVAVHDFFKFRVDGDMVPHISRQRLTKYTMADLVYALRHFDEGNCDTLKEILVTYNCCDDDYFNKKDWYDFVENPDILRVYANLGERVRQSLLKTVQFCDAMRDAGIVGVLTLDNQDLNGNWYDFGDFVQVAPGCGVPIVDSYYSLLMPILTLTRALAAESHMDADLAKPLIKWDLLKYDFTEERLCLFDRYFKYWDQTYHPNCINCLDDRCILHCANFNVLFSTVFPPTSFGPLVRKIFVDGVPFVVSTGYHFRELGVVHNQDVNLHSSRLSFKELLVYAADPAMHAASGNLLLDKRTTCFSVAALTNNVAFQTVKPGNFNKDFYDFAVSKGFFKEGSSVELKHFFFAQDGNAAISDYDYYRYNLPTMCDIRQLLFVVEVVDKYFDCYDGGCINANQVIVNNLDKSAGFPFNKWGKARLYYDSMSYEDQDALFAYTKRNVIPTITQMNLKYAISAKNRARTVAGVSICSTMTNRQFHQKLLKSIAATRGATVVIGTSKFYGGWHNMLKTVYSDVETPHLMGWDYPKCDRAMPNMLRIMASLVLARKHNTCCNLSHRFYRLANECAQVLSEMVMCGGSLYVKPGGTSSGDATTAYANSVFNICQAVTANVNALLSTDGNKIADKYVRNLQHRLYECLYRNRDVDHEFVDEFYAYLRKHFSMMILSDDAVVCYNSNYAAQGLVASIKNFKAVLYYQNNVFMSEAKCWTETDLTKGPHEFCSQHTMLVKQGDDYVYLPYPDPSRILGAGCFVDDIVKTDGTLMIERFVSLAIDAYPLTKHPNQEYADVFHLYLQYIRKLHDELTGHMLDMYSVMLTNDNTSRYWEPEFYEAMYTPHTVLQ
- binding result: binds
